Source: paper PMC5727412

Target: AcrE1 with a C-terminal 6×His tag (Pseudomonas phage JBD5)
Assay: SEC; purified AcrE1 CHis; single peak; elution volume compared with a standard curve to estimate the native molecular mass

Substance “AcrE1 with a C-terminal 6×His tag (natural protein)” has a stoichiometry N of 2.
